By EC50 is commonly meant the concentration needed to bring the measured effect to its halfway point.

Residue numbers refer to the chain shown, from its start.

We go through 28 molecules from patent US20220073643A1.

The labels stand for the following.
B1: 222B6G5 (antibody, V domains shown)
VH: QTYLQQSGAELVRSGASVKMSCKASGYTFTSYNIHWVKQTPGQGLEWIGYISPGNGGTYYNLKFKDKATLTTATSSSTAYMQISSLTSEDSAVYFCATGRGFAYWGQGTLVTVSA
VL: DIVMTQSPSSLTVTPGEKVTMSCKSSQSLFNSGNQKNYLIWYQQKPGQPPKLLIYRASTRDSGVPDRFTGSGSGTDFTLTISNVQAEDLAVYYCQNDYSYPLTFGAGTKLELK
B2: 234A10F7 (antibody, V domains shown)
VH: QVQLQQSGAELVKPGASVKLSCKASGYTFTSFGINWLRQRPEQGLEWIGWIFPGDGNSKYNENFKGKATLTTDKSSSTAYMQLTRLTSEDSAVYFCARFYYGNSFAYWGQGTLVTVSA
VL: B1 VL with P15T, E17Q, F30L, I40T, R56W, S58A, D61E, N83S, S99F, L102F
B3: 182D10F1 (antibody, V domains shown)
VH: QAYLQQSGAELVRSGASVKMSCKASGYTFSSYNMHWVKQTPGQGLEWIGYIYPGNGGTNYNQKFKGKATLTADTSSSTAYMQISSLTSEDSAVYFCLTGRGFTYWGQGTLVTVSA
VL: B1 VL with P15A, S22N, I40T, D61E, N83S, A106V
B4: 185F2G12 (antibody, V domains shown)
VH: B3 VH with S30T, K38R, N61S, T69S, S77T, L97A, T103A
VL: B1 VL with P15A, M21L, S32T, I40T, Y55F, D61E, S73F, N83S, Y98F
B5: 234B9D4 (antibody, V domains shown)
VH: EIQLQQSGPDLMKPGSSVKISCTASGYSFTSYYIHWVKQSHGKTLEWIGYIDPFNGGTRYNQKFEGKAALTVDKSSTTAYMHLTSLTSDDSAVYYCASLRFFTYWGQGTLVTVSA
VL: B1 VL with P15A, S22T, F30L, K36E, I40T, Y55S, D61Q, N83S
B6: 241H10A1 (antibody, V domains shown)
VH: B2 VH with L83V, Y107N
VL: B1 VL with P15A, F30L, I40T, R56W, S58A, D61E, N83S, S99F, L102F, A106G
B7: 226A4B5 (antibody, V domains shown)
VH: B3 VH with K19R, Y27F, S30T, M34I, N55S, T58S, K65M, A79V, L97A, T103A
VL: B1 VL with P15A, I40T, D61E, N83S, A106T
B8: 248E6A7 (antibody, V domains shown)
VH: QAYLQQSGAELVRSGASVKMSCRASGYTFTSHNMHWVKQTPGQGLEWIGYIYPGNGNTYYNQKFKVKATLTADTSSNTAYMQINSLTSEDSAVYFCVRDYYGNSFVYWGQGTLVTVSA
VL: DVVMTQSPSSLTEKTGEKVTMTCKSSQSLLNSGNQKNYLAWYQQKPGQPPKLLIYWASTRESGVPDRFIGSGSGTDFTLTISSLQTEDLAVYYCQNNYMYPFTFGAGTKLELK
B9: 252E7C9 (antibody, V domains shown)
VH: B8 VH with A2T, A24T, T28S, N57G, T58S, V66G, T69I, N77S, N84S, V97T
VL: B8 VL with T20S, T22S, A40T, I69T, V91I, Y98F, M99R
B10: 252C10F6 (antibody, V domains shown)
VH: QVHLKQSGRGLVQPSQSLSITCTVSGFSLPNYGVHWVRQPPGKGLEWLGVIWSGGNTDYNTVFKARLSITKDNSKSQVFFKMNSLQADDTAIYYCARNLYGNYDYAMDYWGQGTSVTVSS
VL: DIVMTQSPATLSVTPGDRVSLSCRASQSISDYLHWYQQKSHESPRLLIKYASQSISGIPSRFSGSGSGSEFTLSINSVEPEDVGVYYCQNGHSFPFTFGSGTKLEIK
B11: 231H4G11 (antibody, V domains shown)
VH: QAYLQQSGAELVRSGASVKMSCKASGYTFTSHNIHWVKQTPGQGLEWIGYISPGNGYTNYNQKFRGKATLTADTSSSTAYMQISSLTSEDSAVYFCTRDYYGNSFAYWGQGTLVTVSA
VL: DIVMTQSPSSLTEKAGERVSMSCKSSQSLFNSGSQKNYLTWYQQKPGQPPKLLIYWASTRESGVPDRFSGSGSGTDFTLTISSVQAEDLAVYYCQNNYWFPFTFGAGTKLELK
B12: 243B4F2 (antibody, V domains shown)
VH: B11 VH with I34L, S52Y, Y57N, R65K
VL: B11 VL with S34N, S69T
B13: 240D6F5 (antibody, V domains shown)
VH: B11 VH with I34M, S52Y, Y57G, R65K, T74P, S84N
VL: B11 VL with S34N, S69T, N97D, W99R, F100Y
B14: 252F1B10 (antibody, V domains shown)
VH: B11 VH with I34M, S52Y, Y57G, R65K, S84N
VL: B11 VL with S34N, S69T, N97D, W99R, F100Y
B15: 233D5E5 (antibody, V domains shown)
VH: B11 VH with I34M, G42R, S52Y, Y57D, R65K
VL: B11 VL with S34N, S69T, N97A, F100Y
B16: 235A10C9 (antibody, V domains shown)
VH: B11 VH with T30A, I34M, S52Y, G56S, Y57G, N59K, R65T, S84T, T97A
VL: B11 VL with R18K, S22R, F30L, S34N, S69T, E87D, N97D, W99M
B17: 232C5E3 (antibody, V domains shown)
VH: B11 VH with V37I, Q43K, S52Y, Y57G, R65K, G66A, T97A
VL: B11 VL with V3M, K14T, R18K, F30L, S34N, N97G, W99R
B18: 242H12D6 (antibody, V domains shown)
VH: B11 VH with I34M, S52Y, Y57G, R65K, S84N
VL: B11 VL with S34N, S69T, N97D, W99R, F100Y
B19: 243F6D2 (antibody, V domains shown)
VH: B8 VH with N57G, V66G, N77S, N84S, V97A
VL: B8 VL with T20S, T22S, A40T, I69T, M99R
B20: 232D7C8 (antibody, V domains shown)
VH: B11 VH with I34M, S52Y, Y57G, R65K, T97A, Y101F
VL: DILMTQSPSSLTATAGEKVSMSCKSSQSLFNSGNQRNYLTWYQQRPGQPPKLLIYWASTRESGVPDRFTGSGSGTDFTLTISSVQAEDLAVYYCQNDYRYPFTFGAGTKLELK
B21: 234C9G5 (antibody, V domains shown)
VH: B11 VH with T28A, I34M, S84G
VL: B11 VL with S34N, S69T
B22: 234E1F12 (antibody, V domains shown)
VH: B11 VH with I34M, G42R, S52Y, Y57D, R65K
VL: B11 VL with S34N, S69T, N97A, F100Y
B23: 232F1E4 (antibody, V domains shown)
VH: QVQLKESGPGLVAPSQSLSITCTVSGFALTTYGVSWVRQPPGKGLEWLGVIWGDGSTHYHSALISRLSIRKDNSKSQVFLKLNSLQTDDTATYYCAKPGRGNAMDYWGQGTSVTVSS
VL: DIVMSQSPSSLTVTAGEKVTMSCKSSQSLLNSGNQKNYLTWYQQKPGQSPKLLIYWASTRESGVPDRFTGSGSGTDFTLTISSMQAEDLAVYYCQNDYIYPLTFGAGTMLELK
B24: 186F7E10 (antibody, V domains shown)
VH: EVMLVESGGGLVKPGGSLKLSCAASRFTLNSYAMSWIRQTPEKKLEWVATITSGVSHTYYFDSVKGRFTISRDTAKNTLNLQMNSLRSEDTAVYYCARLYYGNSLDYWGQGTSVTVSS
VL: B23 VL with S5T, M21V, S49P, M84V, A86S, D97N, M109T
B25: 231C11E9 (antibody, V domains shown)
VH: EVMLVESGGGLVKPGGSLKLSCAASGFTFNNYVMCWVRQTPEKRLEWVATISSGNFYTYYPDSVKGRFTISRDNAKNTLYLQMSSLRSEDTAIYYCASLGRGNALDNWGQGTSVTVSS
VL: DIVMTQSPASLTVTAKEKVTMSCRSSQSLLNSGNQKNYLTWYQQKPGQPPKLLIYWASTRESGVPDRFTGSGSGTDFTLTISSVQAEDLAVYYCQNDYSYPFTFGSGTKLEIK
B26: 240A8E7 (antibody, V domains shown)
VH: B11 VH with S31N, H32Y, S52Y, Y57D, T58N, N59Y, R65K, T97A
VL: B23 VL with I2V, S5T, S22N, S49P, L52M, M84V, V91I, I99Y, L102F, M109K
B27: 246B5F2 (antibody, IgM, V domains shown)
VH: EVMLVESGGGLMKPGGSLKLSCAASEFTFSNYAMSWVRQTPEKRLEWVATISSGRSSTYYPDSVKGRFTISRDNAKNTLYLQMSSLRSEDTAMYYCAGLGRGNAMEYWGQGTSVTVSS
VL: B25 VL with A9S, K16G, M21L, R24K, T78I, S82N, D97A
B28: 242F5H2 (antibody, V domains shown)
VH: EVMLVESGGGLVKPGGSLKLSCAASGFTFSSYTVSWVRQTPEKRLEWVATSIVGSTYTYFPDSVKGRFTISRDFAKNTLFLQMSSLRSEDTAMYYCSRLGRGNAMDYWGQGTSVSVSS
VL: B25 VL with A9S, K16G, M21L, S22N, E87D, D97G

This assay concerns the target Claudin18.2-His protein (human). The assay can be described thus: indirect ELISA on coated Claudin18.2-His. For orientation: In an ELISA, binding on a coated surface is turned into a signal by an enzyme label.
With B1, the EC50 stood at 0.0201 µg/mL.
In the case of B2 it was 0.0268 µg/mL; in that of B3, 0.0236 µg/mL; in that of B4, 0.0193 µg/mL.
In the case of B5, the EC50 came to 0.0405 µg/mL. Compared with the last molecule, the EC50 is about 2.1-fold higher.
In the case of B6 it was 0.0221 µg/mL; in that of B7, 0.00813 µg/mL; in that of B8, 0.00969 µg/mL.
In the case of B9 it was 0.00869 µg/mL.
The result for B10 reads 1.66 µg/mL.
Molecule B11 returned an EC50 of 0.0394 µg/mL.
In the case of B12 it was 0.0125 µg/mL; in that of B13, 0.00792 µg/mL; in that of B14, 0.00723 µg/mL.
Turning to B15, the EC50 was determined as 0.0943 µg/mL.
As for B16, the EC50 worked out at 0.0355 µg/mL. Compared with the last molecule, the EC50 is about 2.7-fold lower.
The molecule B17 showed an EC50 of 0.0259 µg/mL. This EC50 and that of the molecule before are within 1.5-fold of each other.
The result for B18 reads 0.0164 µg/mL.
In the case of B19 it was 0.0346 µg/mL.
As for B20, the EC50 came out at 0.0305 µg/mL.
In the case of B21 it was 0.0387 µg/mL.
In the case of B22 it was 0.105 µg/mL.
The result for B23 reads 0.0509 µg/mL; that for B24, 0.0109 µg/mL.
The molecule B25 yielded an EC50 of 0.0413 µg/mL.
In the case of B26 it was 0.0145 µg/mL.
The result for B27 reads 0.141 µg/mL.
In the case of B28 it was 0.0193 µg/mL.
